Laboratory results taken from PMC3082538, “High-Throughput Protein Expression Using a Combination of Ligation-Independent Cloning (LIC) and Infrared Fluorescent Protein (IFP) Detection” (PLoS ONE, 2011).

Experiments:
Test in all cases: pull-down; 5 µg purified GST or GST-GRF fusion immobilised on BSA-pretreated magnetic glutathione agarose beads (MagneGST) with 0.5% Nonidet-P40 and 10% BSA; incubated with 1 µg purified IFP fusion protein, room temperature, 60 min; five washes with 0.5% Nonidet-P40; eluate read by infrared imaging (700 nm) in microtiter plates, then SDS-PAGE and in-gel detection
Conditions in all cases: both partners purified
GST-GRF6 fusion protein = target: T1, GST-GRF6 fusion protein (Arabidopsis thaliana, UniProt P48349 1-248)
T1 construct: GRF6 of Arabidopsis thaliana (AGI At5g10450), open reading frame in pDEST15; Printed size 56 kDa; Gateway attB linker between GST and GRF6; source: E. coli BL21 (DE3) pLysS, purified (GSTrap HP column, Äkta-FPLC); not shown: GST, N-terminal, kept
T1 sequence (looked up): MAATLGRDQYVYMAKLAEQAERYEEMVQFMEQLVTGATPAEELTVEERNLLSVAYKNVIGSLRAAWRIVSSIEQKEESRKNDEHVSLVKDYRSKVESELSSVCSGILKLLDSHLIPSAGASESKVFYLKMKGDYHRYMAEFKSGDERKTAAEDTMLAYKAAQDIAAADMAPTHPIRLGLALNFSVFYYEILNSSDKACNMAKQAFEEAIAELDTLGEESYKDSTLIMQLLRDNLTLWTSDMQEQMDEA

GST-GRF5 fusion protein = target: T2, GST-GRF5 fusion protein (Arabidopsis thaliana, UniProt P42645 1-268)
T2 construct: GRF5 of Arabidopsis thaliana (AGI At5g16050), open reading frame in pDEST15; Printed size 58 kDa; Gateway attB linker between GST and GRF5; source: E. coli BL21 (DE3) pLysS, purified (GSTrap HP column, Äkta-FPLC); not shown: GST, N-terminal, kept
T2 sequence (looked up): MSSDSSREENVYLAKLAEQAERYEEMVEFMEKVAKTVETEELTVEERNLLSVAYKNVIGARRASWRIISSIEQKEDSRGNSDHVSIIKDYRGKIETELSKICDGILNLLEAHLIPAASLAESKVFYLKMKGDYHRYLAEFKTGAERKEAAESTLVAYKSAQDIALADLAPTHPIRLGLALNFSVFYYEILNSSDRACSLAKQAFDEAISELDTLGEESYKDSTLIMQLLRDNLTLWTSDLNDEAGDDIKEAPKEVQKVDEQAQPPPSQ

GST-GRF1 fusion protein = target: T3, GST-GRF1 fusion protein (Arabidopsis thaliana, UniProt P42643 1-267)
T3 construct: GRF1 of Arabidopsis thaliana (AGI At4g09000), open reading frame in pDEST15; Printed size 58 kDa; Gateway attB linker between GST and GRF1; source: E. coli BL21 (DE3) pLysS, purified (GSTrap HP column, Äkta-FPLC); not shown: GST, N-terminal, kept
T3 sequence (looked up): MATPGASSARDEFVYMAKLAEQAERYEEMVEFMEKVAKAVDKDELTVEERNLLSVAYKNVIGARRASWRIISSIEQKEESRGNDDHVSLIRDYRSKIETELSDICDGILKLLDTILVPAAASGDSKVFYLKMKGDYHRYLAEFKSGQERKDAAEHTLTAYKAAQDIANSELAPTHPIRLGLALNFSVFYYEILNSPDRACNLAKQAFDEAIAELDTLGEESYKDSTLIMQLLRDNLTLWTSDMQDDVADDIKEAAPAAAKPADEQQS

GST-GRF2 fusion protein = target: T4, GST-GRF2 fusion protein (Arabidopsis thaliana, UniProt Q01525 1-259)
T4 construct: GRF2 of Arabidopsis thaliana (AGI At1g78300), open reading frame in pDEST15; Printed size 57 kDa; Gateway attB linker between GST and GRF2; source: E. coli BL21 (DE3) pLysS, purified (GSTrap HP column, Äkta-FPLC); not shown: GST, N-terminal, kept
T4 sequence (looked up): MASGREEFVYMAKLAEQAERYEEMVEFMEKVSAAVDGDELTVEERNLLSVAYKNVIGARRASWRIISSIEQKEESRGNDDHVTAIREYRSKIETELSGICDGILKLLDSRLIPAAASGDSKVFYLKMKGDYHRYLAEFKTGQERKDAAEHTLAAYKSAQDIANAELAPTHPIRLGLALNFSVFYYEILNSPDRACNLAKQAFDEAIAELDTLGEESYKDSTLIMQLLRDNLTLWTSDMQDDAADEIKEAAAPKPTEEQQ

GST-GRF3 fusion protein = target: T5, GST-GRF3 fusion protein (Arabidopsis thaliana, UniProt P42644 1-255)
T5 construct: GRF3 of Arabidopsis thaliana (AGI At5g38480), open reading frame in pDEST15; Printed size 56 kDa; Gateway attB linker between GST and GRF3; source: E. coli BL21 (DE3) pLysS, purified (GSTrap HP column, Äkta-FPLC); not shown: GST, N-terminal, kept
T5 sequence (looked up): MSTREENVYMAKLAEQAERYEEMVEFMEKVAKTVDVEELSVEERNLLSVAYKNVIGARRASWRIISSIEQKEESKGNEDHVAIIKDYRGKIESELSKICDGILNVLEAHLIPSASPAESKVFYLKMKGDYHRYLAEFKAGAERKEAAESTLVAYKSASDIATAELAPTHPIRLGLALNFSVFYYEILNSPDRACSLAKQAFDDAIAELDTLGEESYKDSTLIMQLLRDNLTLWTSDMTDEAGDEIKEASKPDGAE

GST-GRF4 fusion protein = target: T6, GST-GRF4 fusion protein (Arabidopsis thaliana, UniProt P46077 1-267)
T6 construct: GRF4 of Arabidopsis thaliana (AGI At1g35160), open reading frame in pDEST15; Printed size 58 kDa; Gateway attB linker between GST and GRF4; source: E. coli BL21 (DE3) pLysS, purified (GSTrap HP column, Äkta-FPLC); not shown: GST, N-terminal, kept
T6 sequence (looked up): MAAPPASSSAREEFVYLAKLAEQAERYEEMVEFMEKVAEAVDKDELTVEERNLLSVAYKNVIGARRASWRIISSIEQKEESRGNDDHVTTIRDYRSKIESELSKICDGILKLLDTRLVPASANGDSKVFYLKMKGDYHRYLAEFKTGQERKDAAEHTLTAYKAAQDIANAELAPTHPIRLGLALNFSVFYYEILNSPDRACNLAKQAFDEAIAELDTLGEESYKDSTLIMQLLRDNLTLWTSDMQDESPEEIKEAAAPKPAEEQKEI

Measured: binding result

B1: TPK1(1-79)-TEV-IFP-6xHis fusion protein (domain or fragment, Arabidopsis thaliana, UniProt Q8LBL1 1-79, looked up)
chain: MSSDAARTPLLPTEKIDTMAQDFNLNSRTSSSRKRRLRRSRSAPRGDCMYNDDVKIDEPPPHPSKIPMFSDLNPNLRRV
notes: potassium channel TPK1 of Arabidopsis thaliana (AGI At5g55630), N-terminal cytosolic part, amino acids 1-79; Between TPK1(1-79) and the IFP stand residues from the LIC site and the TEV cleavage site ENLYFQG (LC2 vector: ProteinX-TEV-IFP-6xHis); Printed size 47.6-48 kDa; The IFP moiety carries the chromophore biliverdin (cells grown with hemin); also called TPK1-TEV-IFP-6xHis; …
binds: all assays above
